Reference: publication PMC4775227, “Molecular mechanism of thermosensory function of human heat shock transcription factor Hsf1” (eLife, 2016)
Values joined by “and” are separate entries in the source; they are usually repeats but may differ in a detail not shown here. Equal values may be shown once.

T1: human heat shock transcription factor Hsf1, wild type (human), Q00613
T1 chain: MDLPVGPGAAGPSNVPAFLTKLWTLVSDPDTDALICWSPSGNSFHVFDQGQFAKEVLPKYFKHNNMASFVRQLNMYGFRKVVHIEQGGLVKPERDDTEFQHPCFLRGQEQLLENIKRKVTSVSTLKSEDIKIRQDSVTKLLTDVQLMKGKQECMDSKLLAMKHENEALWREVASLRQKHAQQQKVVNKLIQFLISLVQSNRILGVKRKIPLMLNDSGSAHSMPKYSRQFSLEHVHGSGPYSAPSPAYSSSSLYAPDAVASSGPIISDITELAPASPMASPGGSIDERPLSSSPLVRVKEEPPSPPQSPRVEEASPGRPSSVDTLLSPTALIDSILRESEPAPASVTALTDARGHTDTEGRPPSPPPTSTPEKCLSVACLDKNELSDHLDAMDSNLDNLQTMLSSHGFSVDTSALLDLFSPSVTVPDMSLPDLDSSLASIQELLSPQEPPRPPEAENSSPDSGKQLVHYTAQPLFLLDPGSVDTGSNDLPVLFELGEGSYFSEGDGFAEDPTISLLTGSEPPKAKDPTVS


Key:
[1] = target: T1, human heat shock transcription factor …; experiment: SEC; S200 HiLoad 16/60 in Hsf1-buffer (25 mM Hepes pH 7.4, 150 mM NaCl, 10% glycerol, 2 mM DTT), 4°C, after Ni-IDA and cleavage of the SUMO tag; conditions: remark: other sources report otherwise
[2] = target: T1, human heat shock transcription factor …; experiment: HDX-MS; kinetics: 5 µM Hsf1 heat-shocked 10-1000 s at 35, 37, 39 or 42°C, then 30 s in D2O at 20°C; single exponential fits of the low-exchanging fraction; conditions: remark: other sources report otherwise
[3] = target: T1, human heat shock transcription factor …; experiment: native gel or EMSA; blue native polyacrylamide gel; monomeric Hsf1 after heat shock (42°C; pre-incubation at different temperatures for 10 min), Hsf1-buffer; also detected by immunoblot with Hsf1 antiserum; conditions: remark: other sources report otherwise
[4] = target: T1, human heat shock transcription factor …; experiment: HDX-MS + fluorescence polarisation; monomer to dimer; fit of the quadratic solution of the law of mass action to Tm values (10 min incubation, wild type) against Hsf1 concentration, assuming the fraction of dimer determines Tm; rough estimate; conditions: remark: other sources report otherwise
[5] = target: the molecule itself; experiment: HDX-MS; 5 µM Hsf1 or mutant in Hsf1-buffer pre-incubated 10 or 30 min at 20-42°C, diluted 1:20 into D2O buffer, 30 s at 20°C, quenched, online pepsin, LC-MS

stoichiometry N [1] | rate of increase of the low-exchanging HR-A/B population (trimerization) at 35°C [2] | rate of increase of the low-exchanging HR-A/B population (trimerization) at 37°C [2] | rate of increase of the low-exchanging HR-A/B population (trimerization) at 39°C [2] | rate of increase of the low-exchanging HR-A/B population (trimerization) at 42°C [2] | stoichiometry N [3] | Kd [4] | Binder | binding result [5]
2 and 3 | 0.0018 s⁻¹ | 0.0033 s⁻¹ | 0.0094 s⁻¹ | 0.016 s⁻¹ | 3 | 330 nM | human heat shock transcription factor Hsf1, wild type, Q00613 1-529 (natural protein) MDLPVGPGAAGPSNVPAFLTKLWTLVSDPDTDALICWSPSGNSFHVFDQGQFAKEVLPKYFKHNNMASFVRQLNMYGFRKVVHIEQGGLVKPERDDTEFQHPCFLRGQEQLLENIKRKVTSVSTLKSEDIKIRQDSVTKLLTDVQLMKGKQECMDSKLLAMKHENEALWREVASLRQKHAQQQKVVNKLIQFLISLVQSNRILGVKRKIPLMLNDSGSAHSMPKYSRQFSLEHVHGSGPYSAPSPAYSSSSLYAPDAVASSGPIISDITELAPASPMASPGGSIDERPLSSSPLVRVKEEPPSPPQSPRVEEASPGRPSSVDTLLSPTALIDSILRESEPAPASVTALTDARGHTDTEGRPPSPPPTSTPEKCLSVACLDKNELSDHLDAMDSNLDNLQTMLSSHGFSVDTSALLDLFSPSVTVPDMSLPDLDSSLASIQELLSPQEPPRPPEAENSSPDSGKQLVHYTAQPLFLLDPGSVDTGSNDLPVLFELGEGSYFSEGDGFAEDPTISLLTGSEPPKAKDPTVS | –
– | – | – | – | – | – | – | human Hsf1-S307D (natural protein, UniProt Q00613 1-529, looked up, heat shock transcription factor 1 (Hsf1), human, phosphomimetic variant S307D; Probably made and purified as the wild type (6xHis-SUMO fusion in E. coli, tag cleaved); also called phosphomimetic Hsf1 variant) MDLPVGPGAAGPSNVPAFLTKLWTLVSDPDTDALICWSPSGNSFHVFDQGQFAKEVLPKYFKHNNMASFVRQLNMYGFRKVVHIEQGGLVKPERDDTEFQHPCFLRGQEQLLENIKRKVTSVSTLKSEDIKIRQDSVTKLLTDVQLMKGKQECMDSKLLAMKHENEALWREVASLRQKHAQQQKVVNKLIQFLISLVQSNRILGVKRKIPLMLNDSGSAHSMPKYSRQFSLEHVHGSGPYSAPSPAYSSSSLYAPDAVASSGPIISDITELAPASPMASPGGSIDERPLSSSPLVRVKEEPPSPPQDPRVEEASPGRPSSVDTLLSPTALIDSILRESEPAPASVTALTDARGHTDTEGRPPSPPPTSTPEKCLSVACLDKNELSDHLDAMDSNLDNLQTMLSSHGFSVDTSALLDLFSPSVTVPDMSLPDLDSSLASIQELLSPQEPPRPPEAENSSPDSGKQLVHYTAQPLFLLDPGSVDTGSNDLPVLFELGEGSYFSEGDGFAEDPTISLLTGSEPPKAKDPTVS | binds
– | – | – | – | – | – | – | human Hsf1-S303D (natural protein, UniProt Q00613 1-529, looked up, heat shock transcription factor 1 (Hsf1), human, phosphomimetic variant S303D; Probably made and purified as the wild type (6xHis-SUMO fusion in E. coli, tag cleaved); also called phosphomimetic Hsf1 variant) MDLPVGPGAAGPSNVPAFLTKLWTLVSDPDTDALICWSPSGNSFHVFDQGQFAKEVLPKYFKHNNMASFVRQLNMYGFRKVVHIEQGGLVKPERDDTEFQHPCFLRGQEQLLENIKRKVTSVSTLKSEDIKIRQDSVTKLLTDVQLMKGKQECMDSKLLAMKHENEALWREVASLRQKHAQQQKVVNKLIQFLISLVQSNRILGVKRKIPLMLNDSGSAHSMPKYSRQFSLEHVHGSGPYSAPSPAYSSSSLYAPDAVASSGPIISDITELAPASPMASPGGSIDERPLSSSPLVRVKEEPPDPPQSPRVEEASPGRPSSVDTLLSPTALIDSILRESEPAPASVTALTDARGHTDTEGRPPSPPPTSTPEKCLSVACLDKNELSDHLDAMDSNLDNLQTMLSSHGFSVDTSALLDLFSPSVTVPDMSLPDLDSSLASIQELLSPQEPPRPPEAENSSPDSGKQLVHYTAQPLFLLDPGSVDTGSNDLPVLFELGEGSYFSEGDGFAEDPTISLLTGSEPPKAKDPTVS | binds
